Measurements from paper PMC2728795 (Biochemistry, 2009).
Where a chain is given by its changes, count along the chain named. Names may count otherwise.

B1: GST(541–605)PRG (domain or fragment)
chain: GKPKSSSQSTFHIPLSPVEVKPGNVRNIIQHFENNQQYDAPEPGTQRLSTGSFPEDLLESDSSRS
B2: GST(541–605, E573A)PRG (domain or fragment)
chain: B1 chain with E33A
B3: GST(541–605, I569A)PRG (domain or fragment)
chain: B1 chain with I29A
B4: GST(541–605, I568A)PRG (domain or fragment)
chain: B1 chain with I28A
B5: GST(541–605, F572A)PRG (domain or fragment)
chain: B1 chain with F32A

Target: F-actin (freshly polymerized actin) (UniProt P68135 1-377)
Experiment: co-sedimentation

| Binder | percent bound at 5 µM F-actin |
| --- | --- |
| B1 | ~75% |
| B2 | ~25% |
| B3 | ~25% |
| B4 | ~25% |
| B5 | ~25% |
